Consider four molecules from patent US20240228562A1, “NOVEL LIPOCALIN MUTEINS SPECIFIC FOR CONNECTIVE TISSUE GROWTH FACTOR (CTGF)” (PIERIS PHARMACEUTICALS GMBH, priority 2021, published 2024).

This data set is described as follows: Thermal stability assessment by nanoDSC. The format is physicochemical. The note with it: 1 mg/mL in PBS, scan 25-100° C. at 1° C./min; for TM: major transition. How it is done:
To determine the melting temperatures (Tms) of the lipocalin muteins, which is a general indicator for folding stability, the CTGF specific muteins, at a protein concentration of 1 mg/mL in PBS (Gibco), were scanned (25-100° C.) at 1° C./min using a capillary nanoDSC instrument (CSC 6300, TA Instruments). […] Several unfolding events can contribute to the observed thermogram. In cases with multiple transitions, the one with the major unfolding energy best represents the overall protein fold and is reported. Muteins were produced as described in Example 3. SEQ ID NOs: 3, 7, 9, 25, and 29 were expressed using E. coli, the other muteins were expressed using CHO cells.
The resulting maximum melting temperatures as well as the onset temperature of melting for exemplary lipocalin muteins and fusion proteins are listed in Table 3 below.

B1: SEQ ID NO: 63: fusion protein comprising two CTGF-binding lipocalin muteins (protein)
chain: QDSTSDLIPAPPLSKVPLQQNFQDNQFQGKWYVVGRAGNNQLREDKSPPKMWATIYELKEDKSYDVTHVHFSTKKCRYIIDTFVPGSQPGEFTAGAIKSGPGLTSPLVRVVSTNYNQHAMVFFKWVTQNREWFTITLYGRTKELTSELKENFIRFSKSLGLPENHIVFPVPIDQCIDGGGGGSGGGGSGGGGSQDSTSDLIPAPPLSKVPLQQNFQDNQFQGKWYVVGLAGNAILREDKQPAKMFATIYELKEDKSYDVTSVRFEAKSCKYTIKTFVPGSQPGEFTAGYIKSAPGQTSTLVRVVSTNYNQHAMVFFKHVTQNREIFVITLYGRTKELTSELKENFIRFSKSLGLPENHIVFPVPIDQCIDG
modifications: fusion protein
Turning to B1, the “ONSET MELTING” value stood at 50 °C and the TM was determined as 66 °C.

B2: SEQ ID NO: 62: fusion protein comprising two CTGF-binding lipocalin muteins (protein)
chain: QDSTSDLIPAPPLSKVPLQQNFQDNQFQGKWYVVGRAGNNQLREDKSPPKMWATIYELKEDKSYDVTHVHFSTKKCRYIIDTFVPGSQPGEFTAGAIKSGPGLTSPLVRVVSTNYNQHAMVFFKWVTQNREWFTITLYGRTKELTSELKENFIRFSKSLGLPENHIVFPVPIDQCIDGGGGGSGGGGSGGGGSQDSTSDLIPAPPLSKVPLQQNFQDNQFQGKWYVVGWAGNVKLREDKQPQKMSATIYELKEDKSYDVTEVVFEQKKCHYIIKTFVPGSQPGEFTAGDIKSPPGYTSSLVRVVSTNYNQHAMVFFKKVSQNREFFWITLYGRTKELTSELKENFIRFSKSLGLPENHIVFPVPIDQCIDG
modifications: fusion protein
Take B2: the “ONSET MELTING” value came out at 53 °C and the TM worked out at 67 °C.

B3: SEQ ID NO: 64: fusion protein comprising two CTGF-binding lipocalin muteins (protein)
chain: QDSTSDLIPAPPLSKVPLQQNFQDNQFQGKWYVVGLAGNYRLREDKDPSKMGATIYELKEDKSYDVTQVQFDDKKCLYVIETFVPGSQPGEFTLGAIKSYPGLTSQLVRVVSTNYNQHAMVFVKKVWPNLEYFQIVLYGRTKELTSELKENFIRFSKSLGLPENHIVFPVPIDQCIDGGGGGSGGGGSGGGGSQDSTSDLIPAPPLSKVPLQQNFQDNQFQGKWYVVGLAGNAILREDKQPAKMFATIYELKEDKSYDVTSVRFEAKSCKYTIKTFVPGSQPGEFTAGYIKSAPGQTSTLVRVVSTNYNQHAMVFFKHVTQNREIFVITLYGRTKELTSELKENFIRFSKSLGLPENHIVFPVPIDQCIDG
modifications: fusion protein
As for B3, the “ONSET MELTING” value was 56 °C and the TM turned out to be 65 °C.

B4: SEQ ID NO: 68: fusion protein comprising two CTGF-binding lipocalin muteins (protein)
chain: QDSTSDLIPAPPLSKVPLQQNFQDNQFQGKWYVVGLAGNAILREDKQPAKMFATIYELKEDKSYDVTSVRFEAKSCSYTSKTFVPGSQPGEFTAGNIKSAPGQTSTLVRVVSTNYNQHAMVFFKHVSQNRETFVITLYGRTKELTSELKENFIRFSKSLGLPENHIVFPVPIDQCIDGGGGGSGGGGSGGGGSQDSTSDLIPAPPLSKVPLQQNFQDNQFQGKWYVVGWAGNVKLREDKQPQKMSATIYELKEDKSYDVTEVVFEQKKCHYIIKTFVPGSQPGEFTAGDIKSPPGYTSSLVRVVSTNYNQHAMVFFKKVSQNREFFWITLYGRTKELTSELKENFIRFSKSLGLPENHIVFPVPIDQCIDG
modifications: fusion protein
With B4, the “ONSET MELTING” value is 61 °C and the TM was 72 °C.
